One may read the Kd as the constant that tells how readily two partners part at equilibrium. Higher therefore signals a looser complex.

The target of this test is T1, purified human alpha globin, biotinylated and immobilized on streptavidin biosensors (human, UniProt P69905 2-142, biotinylated using EZ-Link NHS-PEG4 Biotinylation Kit (sites not given)).
T1 construct: Ligand on the sensor in the bio-layer interferometry assay; also called full-length alpha globin
The test is described as follows: bio-layer interferometry (Octet RED96), biotinylated alpha globin on streptavidin sensors, AHSP in solution at 62.5-1000 nM; AHSP as analyte on immobilized alpha globin (FIG. 2D). (In BLI a coated tip is dipped into the sample, and binding shifts an interference pattern.)

T1 sequence (P69905 2-142 limits assumed): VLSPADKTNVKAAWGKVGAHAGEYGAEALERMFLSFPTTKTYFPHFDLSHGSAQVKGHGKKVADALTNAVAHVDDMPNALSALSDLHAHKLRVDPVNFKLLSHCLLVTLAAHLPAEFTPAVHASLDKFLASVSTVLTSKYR

B1: alpha hemoglobin stabilizing protein (other, UniProt Q9NZD4 1-102, looked up)
chain: MALLKANKDLISAGLKEFSVLLNQQVFNDPLVSEEDMVTVVEDWMNFYINYYRQQVTGEPQERDKALQELRQELNTLANPFLAKYRDFLKSHELPSHPPPSS
notes: Comparison analyte in the BLI assay; also called AHSP
B1 displayed a Kd of 109 nM. That is a sub-micromolar value.
